This passage reports Kd, koff and kon results from patent US20250250357A1 (NANJING ZAIMING PHARMACEUTICAL, published 2025).

B1: S009-F7.53.2 (antibody, human IgG1, kappa, V domains shown)
VH: EVQLQQSGPELVKPGASVKIPCKTSGYTFTDYNMDWVKQSHGKSLEWIGDINPNTDGAIYNQKFQNKATLTVDKSSSTAYMELRSLTSEDTAVYYCTRRKLGRKFFDYWGQGTTLTVSS
VL: QIVLTQSPAIMSASPGEQVTMTCSASSSVGYMNWYQQKPGSSPRLLIYDTSNLASGVPVHFSGSGSGTSYSLTISRMEAAFAATYYCQQWYVYPYTFGGGTKLEIKR
notes: human-murine chimeric antibody, human IgG1/kappa constant regions
B2: S009-F7.11.11 (antibody, human IgG1, kappa, V domains shown)
VH: EVQLQQSGPELVKPGASVKIPCKASGYTITDYNMDWVKQSRGKSLEWIGDVFPYNGDSIYNQKFEGRATLTVDKYSSTAYMELRGLTSEDTAVYFCARRKTGTGYFDVWGTGTTVTVSS
VL: QLVLTQSPAIMSASPGEKVTLTCSASSSVSSTYLSWYLQKPGSSPKLWIYSTSNLASGVPARFSGSGSGTSYSLTISSMEAEDAASYFCHQWSSYPYTFGGGTKLEIKR
notes: as for B1
B3: S009-F7.44.20 (antibody, human IgG1, kappa, V domains shown)
VH: EVQLQQSGPELVKPGASVKIPCKASGYTFTDYNMDWVKQSHGKSLEWIGDINPSTGGTIYNQKFNGKATLTEDKSASTVYMEFRSLTSDDTAVYYCARRRIGTGYFDVWGTGTTVTVSS
VL: QIVLTQSPALMSASPGEKVTLTCSASSSVISSYLSWYQQKPGSSPKLLIYRTSNLASGVPARFSGSGSGTSYSLTISSMEAEDAASYFCHQWSSFPYTFGGGTKLEIKR
notes: as for B1
B4: S009-F7.61.21 (antibody, human IgG1, kappa, V domains shown)
VH: DVQLQQSGPELVEPGASVRIPCKAAGHTFTDYNVDWVKQSHGQSLEWIGDVNPNTDGAIYNQKFEGKATLTVDTSSSTAYMELRSLTSEDTAVYFCARRRLGQGGFDSWGQGTTLTVSS
VL: QVVLTQSPAIMSASPGEKVTLTCGASSSLISKYLYWYQQKPGSSPKLWIYSTSNLASGVPARFSGSGSGTSYSLTISSMEAEDAASYFCHQWSSYPYTFGGGTKVEIKR
notes: as for B1
B5: S009-F7.12.13 (antibody, human IgG1, kappa, V domains shown)
VH: EVQLQQSGPELVKPGASVKIPCKASGYTFTDYNMDWVKQSHGKGLEWIGDINPNTDDTIYNQKFNGKATLTVDKSSSTAYMELRSLTSEDTAVYYCSRRLIGTGYFDVWGTGTTVTVSS
VL: QIVLTQSPAIMSASPGEKVTLTCSASSSVISTYLCWYRQKPGSSPELWIYSTSNLASGVPARFSGSGSGTSYSLTISSMEAEDAASYFCHQWSNYPYTFGGGTKLGMKR
notes: as for B1
B6: S009-F7.21.16 (antibody, human IgG1, kappa, V domains shown)
VH: QVQLQQPGTELVKPGASVKLSCKASGYTFTTFWMHWVKQRPGQGLEWIGGVNPTNGGTNYNEKFRTKATLTVDKSSTTADMQLSSLTSEDSAVYYCAPHYISSRPGFAYWGQGTLVTVSG
VL: DIVMTQSQKFMSTSGGDRVSVTCKASQNVGTNVAWYQQKPGQSPKALIYSASYRYSGVPDRFTGSGSGTDFILTISNVQSEDLAEYFCQQYNSYPLTFGGGTKLEIKR
notes: as for B1
B7: S009-F7.33.24 (antibody, human IgG1, kappa, V domains shown)
VH: QVQLQQPGTELVKPGASVKLSCKASGYTFTSYWMHWVKQRPGQGLEWIGNVNPSNGGSNYNEKFKNKATLTVDKSSSTADMQLNSLTSEDSAVYYCAPHYIGSRPGFAYWGQGTLVTVSG
VL: DIVMTQSQKFMSTSVGDRVSVTCKASQNVGTNIAWYQQKPGQSPKALIYSASYRYSGVPDRFTGSGSGTDFTLTITNVQSEDLAEYFCQQYNSYPLTFGGGTKVEIKR
notes: as for B1
B8: S009-F7.25.19 (antibody, human IgG1, kappa, V domains shown)
VH: QVQLQQPGTELVKPGASVKLSCKASGYTFTSYWMHWVKQRPGQGLEWIGNIIPSNGGTKYNEKFKSKATLTVDKSSSTAYMQLSSLTSEDSAVYYCSPHYYGGSPGFAYWGQGTLITVSA
VL: DIVMTQSQKFMSTSVGDRVSVICKASQNVGTNVAWYQQKPGQSPKALIYSASYRYSGVPDRFTGSGSGTDFTLTISNVQSEDLAEYFCQQYNSYPLTFGGGTKLEIKR
notes: as for B1
B9: S009-F7.48.1 (antibody, human IgG1, kappa, V domains shown)
VH: QVQLQQPGTELVKPGASVKLSCKASGYTFTSYWMHWVKQRPGQGLEWIGNINPSNGGTNNNENFKSKATLTVDTSSSTAYMQLSSLTSEDSAVYYCVRNGYHGYWYFDVWGTGTTVTVSS
VL: DIVMTQSQKFMSTSVGDRVSVTCKASQNVGTNVAWYQQQPGQSPKALIYSASYRYSGVPDRFTGSVSGTDFTLTISNVQSEDLAEYFCQQYNSYPLTFGGGTKLEIKR
notes: as for B1
B10: S009-F7.30.5 (antibody, human IgG1, kappa, V domains shown)
VH: QVQLQQPKTELVKPGASVKLSCKASGYIFTTYWMHWVKQRPGQGLEWIGNVNPSNGGTMYNEKFERRATLTVDKSSSTADMQLSSLTSEDSAVYYCVPHYIGSRPGFAYWGQGTLVTVSG
VL: DIVMTQSQKFMSTSVGDRVSVTCKASQNVGTNVAWYQHKPGQSPKALLYSASYRYSGVPDRFTGSGSGTDFTLTITNVQSEDLAEYFCQQYNSYPLTFGGGTKLEIKR
notes: as for B1
B11: S009-F7.66.12 (antibody, human IgG1, kappa, V domains shown)
VH: QIPLQQSGPELVKPGASVRISCKASDYAFSSSWMNWVKQRPEKGLEWIGRIFVESGNTHYNDKFNGKATLTADKSSRTAYIQLSSLTSEDSAVYFCTRENIFYHGHSSWFAYWGQGTLVTVSA
VL: DIVLTQSPASLVVSLGQRATISCRAGESVDDFGISYVHWYQQKPGQPPKLLIYRAANLESGIPARFSGSGSRTDFTLTINPVETDDVAIYYCQQNNKDPFTFGSGTKLEIKR
notes: as for B1
B12: S009-F7.41.18 (antibody, human IgG1, kappa, V domains shown)
VH: QVQLQQPGTELVKPGASVKLSCKASDYTFTSYWMHWVKQRPGQGLEWIGSINPSNGDTYYNEKFKNKATLTVDKSSSTAYMQLSSLTSDDSAVYYCARGWYFDVWGTGTTVTVSS
VL: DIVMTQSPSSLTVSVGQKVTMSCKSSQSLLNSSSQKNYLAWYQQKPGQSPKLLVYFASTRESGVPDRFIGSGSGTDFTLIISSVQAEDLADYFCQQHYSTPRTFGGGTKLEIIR
notes: as for B1
B13: S009-F7.65.13 (antibody, human IgG1, kappa, V domains shown)
VH: EVQLQQSGPELVKPGTSVKILCKASGDTFTAYNMDWVKQRHGQSLEWIGDINPNTDSTIYNQKFEGKAILTVDKSSSTAYMELRSLTSEDTAVYYCARRKLGRGYFDYWGQGTTLTVSS
VL: QIVLTQSPAIMSASPGEKVTMTCSVNLSVRYIYWYQQKPGSSPRLLIHDTSNLASGVPVRFSGSGSGTSYSLTISRMEAEDAATYYCQQWSSFPYTFGGGTKLEIKR
notes: as for B1
B14: S009-F7.67.12 (antibody, human IgG1, kappa, V domains shown)
VH: QVQLQQPGTELVKPGASVRLSCRASGYSFSSYWMHWVKQRPGQGLEWLGNINPTTGDINYNEKFRNRATLAVDKSSTTAYLQLTSLTSEDSAVYFCVRHDGFLWGQGTTLTVSS
VL: DIQMTQSPASLSASVGETVTITCRASENIYSYLAWYQQKQGKSPQLLVYYAKTLAEGVSSRFSGSGSGTQFSLKINSLQPEDFGTYYCQHQFGTPRTFGGGTKLEIRR
notes: as for B1
B15: S009-F7.69.8 (antibody, human IgG1, kappa, V domains shown)
VH: EVHLQQSGPELVKPGASVRIPCKASGYTFTDYNMDWVKQSHGKSLEWIGDINPDNGGTIYTQKFKGKATLTVDKSSSTAYMELRSLTSEDTAVYYCARRLHYYGSSGLDYWGQGTTLTVSS
VL: DIQMTQSPASLSAYVGETVTITCRASGNIHNYLAWYQQKQGKSPQLLVYNAKTLADGVPSRFSGSGSGTQYSLKINSLQPEDFGSYYCQHFWSTVWTFGGGTKLEIKR
notes: as for B1
B16: S009-F7.6.17 (antibody, human IgG1, kappa, V domains shown)
VH: QVQLQQSGAELARPGASVKMSCKASGYTFTTYTMHWVKQRPGQGLEWIGYISPTGDFTKYNQKFKDKATLTTDKSSNTAFMQLSSLTSEDSAVYYCARWNGTVWFAYWGQGTLVTVSA
VL: DIVMTQSQKFMSTSVGDRVTVTCKASQALGTNVAWYQQKPGQSPKVLIYSASYRYSGVPYRFAGGGSGTDFTLTITNVQSEDLAEYFCQQYNNYPLTFGAGTKLELKR
notes: as for B1
B17: S009-F7.23.19 (antibody, human IgG1, kappa, V domains shown)
VH: EVKLVESGGGLVQPGGSLSLSCAASGFTFTDYYMSWVRQPPGKALEWLGFIRSKANAYTTEYSASVKGRFTISRDNSQSILYLQMNDLRAEDSATYYCARYYYYGSGYVWYFDVWGTGTTVTVSS
VL: DIVMTQSQKFMSTSVGDRVSVTCKASQSVGTNVAWYQQKPGQFPKALIYSASYRYSGVPDRFTGSGSGTDFTLTIINVQSEDLAEYFCQQYNSYPLTFGAGTKLELKR
notes: as for B1
B18: S009-F7.26.15 (antibody, human IgG1, kappa, V domains shown)
VH: DVQLQESGPGLVKPSQTVFLTCTVTGISITTGNYRWSWIRQFPGNKLEWIGYIYYTGFITYNPSLTSRTTITRDTPKNQFFLEMKSLTAEDTATYYCARDDYDYDVFAYWGQGTLVTVSA
VL: DIQMTQSPASLSASVGETVTITCRASGNIHNYLAWYHQKQGKSPQFLVYKAKTLADGVPSRFSGSGSGTQYSLKINRLQPEDFGSYYCQHFLSIPLTFGAGTKLELKR
notes: as for B1

The target in this assay is T1, human MSLN-FL-his protein (human, UniProt Q13421 296-580).
T1 construct: made in HEK293E cells, purified on nickel column; also called hMSLN-FL-his; human MSLN full-length protein; not shown: His tag
T1 sequence (Q13421 other isoform, or with tags, fused parts or gaps): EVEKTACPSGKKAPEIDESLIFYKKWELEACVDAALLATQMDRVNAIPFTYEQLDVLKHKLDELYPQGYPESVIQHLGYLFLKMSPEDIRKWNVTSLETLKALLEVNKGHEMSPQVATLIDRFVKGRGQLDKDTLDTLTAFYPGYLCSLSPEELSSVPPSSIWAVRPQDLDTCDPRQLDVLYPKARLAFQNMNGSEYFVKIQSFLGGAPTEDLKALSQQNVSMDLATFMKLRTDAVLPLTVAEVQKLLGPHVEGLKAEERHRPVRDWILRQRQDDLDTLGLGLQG
The assay can be described thus: SPR (Biacore), antibody captured on Protein A chip.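 Also: flow cell at 25 °C, antigen injected for 240 s at five concentrations from 200 nM downward, dissociation followed up to 600 s, double-referenced, fitted with Langmuir 1:1 model.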 Background: In SPR one partner is held on a chip, and binding of the other changes the refractive index at the surface.
In the case of B1, binding was put at a Kd of 3.27 nM, the koff turned out to be 0.00065 s⁻¹ and the on-rate constant (kon) was found to be 199000 M⁻¹ s⁻¹.

As to B2, the dissociation constant Kd was 0.181 nM, the dissociation rate constant (koff) is 0.00024 s⁻¹ and the kon is 1.33e+06 M⁻¹ s⁻¹.

In turn, B3 had a Kd of 3.01 nM, a koff of 0.00106 s⁻¹ and a kon of 351000 M⁻¹ s⁻¹.

For the molecule B4, the dissociation constant (Kd) is 5.03 nM, the dissociation rate constant (koff) turned out to be 0.00154 s⁻¹ and the kon came to 306000 M⁻¹ s⁻¹.

Molecule B5 registered a dissociation constant (Kd) of 40.5 nM, a dissociation rate constant (koff) of 0.00892 s⁻¹ and a kon of 220000 M⁻¹ s⁻¹.

As for B6, the Kd is 1.69 nM, the koff was 0.000773 s⁻¹ and the association rate constant (kon) worked out at 458000 M⁻¹ s⁻¹.

B7 returned a Kd of 10.2 nM, a koff of 0.00506 s⁻¹ and a kon of 498000 M⁻¹ s⁻¹.

Molecule B8 showed a Kd of 2.71 nM, a koff of 0.00113 s⁻¹ and a kon of 417000 M⁻¹ s⁻¹.

For B9, the affinity, expressed as Kd, was 17.8 nM; the dissociation rate constant (koff) is 0.000413 s⁻¹; the on-rate constant (kon) turned out to be 23100 M⁻¹ s⁻¹.

B10 displayed a Kd of 3.83 nM, an off-rate constant (koff) of 0.000705 s⁻¹ and a kon of 184000 M⁻¹ s⁻¹.

As for B11, the Kd stood at 13.1 nM, the koff is 0.00236 s⁻¹ and the kon is 180000 M⁻¹ s⁻¹.

B12 registered a dissociation constant (Kd) of 0.418 nM, a dissociation rate constant (koff) of 8.35e-05 s⁻¹ and an association rate constant (kon) of 200000 M⁻¹ s⁻¹.

B13: binding was characterised by a dissociation constant (Kd) of 1.44 nM, the koff was found to be 0.000538 s⁻¹ and the kon worked out at 374000 M⁻¹ s⁻¹.

B14 showed a dissociation constant (Kd) of 0.602 nM, a dissociation rate constant (koff) of 0.00065 s⁻¹ and an on-rate constant (kon) of 1.08e+06 M⁻¹ s⁻¹.

Regarding B15, the affinity, expressed as Kd, was 6.51 nM; the koff is 0.00447 s⁻¹; the association rate constant (kon) turned out to be 687000 M⁻¹ s⁻¹.

In turn, B16 had a Kd of 1.18 nM, a koff of 0.000389 s⁻¹ and a kon of 329000 M⁻¹ s⁻¹.

The molecule B17 yielded a Kd of 13.6 nM, an off-rate (koff) of 0.00695 s⁻¹ and an on-rate (kon) of 511000 M⁻¹ s⁻¹.

B18 returned a Kd of 0.2 nM, a koff of 0.000975 s⁻¹ and an on-rate (kon) of 4.88e+06 M⁻¹ s⁻¹.

By Kd is commonly meant a measure of binding affinity in units of concentration. High values mean a looser complex, low ones a tighter complex. The term koff denotes the first-order rate constant of dissociation. The term kon denotes the second-order rate constant of association. A low value points to slower complex formation.
